Data taken from ChEMBL document CHEMBL2073804, “Transport of the beta -O-glucuronide conjugate of the tobacco-specific carcinogen 4-(methylnitrosamino)-1-(3-pyridyl)-1-butanol (NNAL) by the multidrug resistance protein 1 (MRP1). Requirement for glutathione or a non-sulfur-containing analog” (J Biol Chem, 2001).

Substrate: CN(CCCC(C[C@@H]1O[C@H](C(=O)O)[C@@H](O)[C@H](O)[C@H]1O)c1cccnc1)N=O
Test: TP_TRANSPORTER: uptake, in the presence of GSH in membrane vesicle from MRP1-expressing T5 HeLa cell
Assay type: functional, cell membranes

B1: Multidrug resistance-associated protein 1 (Homo sapiens) (protein)
chain: MALRGFCSADGSDPLWDWNVTWNTSNPDFTKCFQNTVLVWVPCFYLWACFPFYFLYLSRHDRGYIQMTPLNKTKTALGFLLWIVCWADLFYSFWERSRGIFLAPVFLVSPTLLGITMLLATFLIQLERRKGVQSSGIMLTFWLVALVCALAILRSKIMTALKEDAQVDLFRDITFYVYFSLLLIQLVLSCFSDRSPLFSETIHDPNPCPESSASFLSRITFWWITGLIVRGYRQPLEGSDLWSLNKEDTSEQVVPVLVKNWKKECAKTRKQPVKVVYSSKDPAQPKESSKVDANEEVEALIVKSPQKEWNPSLFKVLYKTFGPYFLMSFFFKAIHDLMMFSGPQILKLLIKFVNDTKAPDWQGYFYTVLLFVTACLQTLVLHQYFHICFVSGMRIKTAVIGAVYRKALVITNSARKSSTVGEIVNLMSVDAQRFMDLATYINMIWSAPLQVILALYLLWLNLGPSVLAGVAVMVLMVPVNAVMAMKTKTYQVAHMKSKDNRIKLMNEILNGIKVLKLYAWELAFKDKVLAIRQEELKVLKKSAYLSAVGTFTWVCTPFLVALCTFAVYVTIDENNILDAQTAFVSLALFNILRFPLNILPMVISSIVQASVSLKRLRIFLSHEELEPDSIERRPVKDGGGTNSITVRNATFTWARSDPPTLNGITFSIPEGALVAVVGQVGCGKSSLLSALLAEMDKVEGHVAIKGSVAYVPQQAWIQNDSLRENILFGCQLEEPYYRSVIQACALLPDLEILPSGDRTEIGEKGVNLSGGQKQRVSLARAVYSNADIYLFDDPLSAVDAHVGKHIFENVIGPKGMLKNKTRILVTHSMSYLPQVDVIIVMSGGKISEMGSYQELLARDGAFAEFLRTYASTEQEQDAEENGVTGVSGPGKEAKQMENGMLVTDSAGKQLQRQLSSSSSYSGDISRHHNSTAELQKAEAKKEETWKLMEADKAQTGQVKLSVYWDYMKAIGLFISFLSIFLFMCNHVSALASNYWLSLWTDDPIVNGTQEHTKVRLSVYGALGISQGIAVFGYSMAVSIGGILASRCLHVDLLHSILRSPMSFFERTPSGNLVNRFSKELDTVDSMIPEVIKMFMGSLFNVIGACIVILLATPIAAIIIPPLGLIYFFVQRFYVASSRQLKRLESVSRSPVYSHFNETLLGVSVIRAFEEQERFIHQSDLKVDENQKAYYPSIVANRWLAVRLECVGNCIVLFAALFAVISRHSLSAGLVGLSVSYSLQVTTYLNWLVRMSSEMETNIVAVERLKEYSETEKEAPWQIQETAPPSSWPQVGRVEFRNYCLRYREDLDFVLRHINVTINGGEKVGIVGRTGAGKSSLTLGLFRINESAEGEIIIDGINIAKIGLHDLRFKITIIPQDPVLFSGSLRMNLDPFSQYSDEEVWTSLELAHLKDFVSALPDKLDHECAEGGENLSVGQRQLVCLARALLRKTKILVLDEATAAVDLETDDLIQSTIRTQFEDCTVLTIAHRLNTIMDYTRVIVLDKGEIQEYGAPSDLLQQRGLFYSMAKDAGLV
B1 gave a Km of 39 µM.
